# Bridge positions count the residues as written; N and C are the ends. Square brackets hold non-standard residues; d marks the D form. Peptide text beside a SMILES is read from it. * marks the point of attachment. NOTA = O=C(O)CN1CCN(CC(=O)O)CCN(CC(=O)*)CC1; Nle = CCCC[C@H](N)C(=O)O; AEEA = NCCOCCOCC(=O)O
# Assay: in vivo
# Details: female, BALB/c, mouse, iv, total radioactivity
# Experimental: The animals (BALB/c female mice, n = 6) were administered with carbon tetrachloride (CCl4) formulated in a corn oil solution (20%, 0.5 mg per gram of body weight) into the lower side of the abdomen three times a week for three weeks. The wellbeing of the animals was monitored for 30 min after the injection and once per day afterwards. The development of liver fibrosis was confirmed by post-mortem Sirius Red staining of the PFA liver biopsies.
# Healthy mice (n = 4, 19.6 ± 1.0 g) and mice with CCl4 induced liver fibrosis (n = 5, 21.55 ± 1.12 g) were intravenously administered with [^68Ga]Ga-NO2A-[Nle^13]-Col (5.2 ± 2.1 MBq, 0.31 ± 0.09 ug and 6.1 ± 2.1 MBq, 0.35 ± 0.08 ug) and the tracer organ distribution was studied after a 60 min incubation ex vivo (Table S1). The weight of the excised organs of interest (blood, heart, lung, liver, pancreas, spleen, kidney, intestines, muscle, brain) was noted and the radioactivity was measured using an automated gamma counter (2480 Wizard2^TM, PerkinElmer, Waltham, MA, USA) with a correction for dead-time and radioactivity decay.
compound,measurement,setting,value
"CCCC[C@@H]1NC(=O)[C@H](C(C)C)NC(=O)[C@H](CCCNC(=N)N)NC(=O)CNC(=O)[C@@H]2CCCN2C(=O)[C@@H](NC(=O)COCCOCCNC(=O)CN2CCN(CC(=O)O)CCN(CC(=O)O)CC2)CSSC[C@@H](C(=O)O)NC(=O)[C@@H]2CCCN2C(=O)CNC(=O)[C@H](CCC(=O)O)NC(=O)[C@H](CC(=O)O)NC(=O)[C@H](CC(=O)O)NC(=O)CNC(=O)[C@H](CC(C)C)NC(=O)[C@H](Cc2c[nH]cn2)NC(=O)[C@H](CC(C)C)NC(=O)CNC(=O)[C@H](Cc2c[nH]cn2)NC1=O [[^68Ga]Ga-NO2A-[Nle^13]-Col, [^68Ga]Ga-NOTA-PEG2-c[CPGRVNleHGLHLGDDEGPC], metal not drawn] ({NOTA-AEEA}-CPGRV[Nle]HGLHLGDDEGPC-OH; disulfide 1-18)",SUV at 1 h,"5.2 MBq, SUV lungs (LU)",0.0679 SUV
same,SUV at 1 h,"6.1 MBq, SUV kidneys (KI)",2.12 SUV

# Reference: PMC8537947, “Improved Radiolytic Stability of a ^68Ga-labelled Collagelin Analogue for the Imaging of Fibrosis” (Pharmaceuticals, 2021)
